# B1: recombinant activin-A: Recombinant activin-A produced using mammalian expression system (Amgen Inc); stimulus in cell cultures (protein)
# chain: GLECDGKVNICCKKQFFVSFKDIGWNDWIIAPSGYHANYCEGECPSHIAGTSGSSLSFHSTVINHYRMRGHSPFANLKSCCVPTKLRPMSMLYYDDGQNIIKKDIQNMIVEECGCS
# Key:
# [1] = test system: TOV-21G ovarian cancer xenografts; assay: TOV-21G ovarian cancer xenograft growth in nude mice; type: in vivo, mouse
# Protocol: 5×10^6 TOV-21G ovarian cancer cells were implanted subcutaneously into individual female athymic nu/nu mice (Harlan). Treatment was initiated at day 12 after tumor implantation, when the average tumor volume reached approximately 150 mm^3. The mice received PBS, sActRIIB (30 mg/kg, SC, 1×/week) or activin-A antibody (30 mg/kg, SC, 2×/week). In a separate chemotherapy combination experiment, the mice were treated with PBS, sActRIIB (10 mg/kg, SC, 1×/week), 5-FU (50 mg/kg, IP, 3 cycles, 4 daily injections per cycle) or sActRIIB and 5-FU combination at the same doses above.
# For all xenograft experiments, the tumor sizes were measured longitudinally by using an electronic caliper Immediately prior to the 1st dose, the tumor-bearing mice were randomized to ensure even distribution in tumor sizes across different groups. Tumor volumes (mm^3) were calculated as tumor length (mm)×tumor width (mm)×tumor height (mm) Tumor weights were determined by necropsy.
# In another experiment, athymic nude mice received TOV-21G xenografts in the abdominal flank. After 14 days, subcutaneous hu-sActRIIB-Fc was administered weekly alone or in combination with 5-FU.
# VEGF transcripts = assay: VEGF mRNA in cell cultures (real-time RT-PCR); type: cell-based, human, bovine; conditions: TOV-21G, BAEC, MRC-5, CCD-Lu, U937 cultures treated with recombinant activin-A, without or with sActRIIB; FIG. 16A
# Ang-1 mRNA = Ang-1 mRNA in cell cultures (real-time RT-PCR); type: cell-based, human, bovine; conditions: BAEC, MRC-5 and CCD-Lu cultures treated with recombinant activin-A, without or with sActRIIB; FIG. 16B
# VEGF = VEGF release into culture medium (ELISA); type: cell-based, human; conditions: TOV21G, MRC-5, CCD-Lu and TPH-1 cells treated with activin-A, without or with sActRIIB; FIG. 17A
# Protocol: (§1) The serum VEGF levels in inh-KO mice were measured by using immunoassay kit (R&D Systems), and the levels of human VEGF and Ang-1 in cell line culture medium were quantified using ELISA kits purchased from Invitrogen (VEGF) and R&D Systems (Ang-1), by following the manufacturers' recommended protocols.
# Ang-1 = Ang-1 release into culture medium (ELISA); type: cell-based, human; conditions: MRC-5 and CCD-Lu cells treated with activin-A, without or with sActRIIB; FIG. 17B
# Protocol: as §1
# activin-A (βA) mRNA = assay: Endogenous activin-A (βA) mRNA in cell cultures (real-time RT-PCR); type: cell-based, human, bovine; conditions: TOV21G, BAEC, MRC-5, CCD-Lu, U937 and THP-1 cultures treated with recombinant activin-A, without or with sActRIIB; FIG. 18
Molecule,"tumor growth reduction ([1]; 52 days after tumor cell injection, versus vehicle-treated tumor-bearing group, p<0.0001, weekly SC hu-sActRIIB-Fc from day 14, alone or with 5-FU)","rate of tumor growth of TOV-21G xenografts ([1]; chemotherapy combination experiment, sActRIIB 10 mg/kg SC 1x/week, 5-FU 50 mg/kg IP 3 cycles, alone or together, FIG. 13)",levels of VEGF transcripts (VEGF transcripts),levels of Ang-1 mRNA (Ang-1 mRNA),release of VEGF into the culture medium (VEGF),release of Ang-1 into the culture medium (Ang-1),endogenous βA mRNA expression (activin-A (βA) mRNA)
"O=c1[nH]cc(F)c(=O)[nH]1 [5-FU, 5-Fluorouracil, reference compound]",47%,decreased the rate of tumor growth significantly,,,,,
B1,,,marked increases,marked increases,increased the release,increased the release,markedly upregulated

# Source: patent US20140220033A1, “Administration of an Anti-Activin-A Compound to a Subject” (Santa Maria Biotherapeutics, Inc., priority 2013, published 2014)
